# Assay results published in the supplement of paper PMC7877785.
# ± gives the uncertainty stated by the source.
# Assay: self-splicing fitness, log relative to wild type (ln ratio); higher = more splicing; Tetrahymena group I intron in knt gene, E. coli kanamycin selection, DiMSum; sequences stand for … in CUCUCU…GGAGGGAAAAGUUAUCAGGCAUGCACCUGGUAGCUAGUCUUUAAACCAAUAGAUUGCAUCGGUUUAAAAGGCAAGACCGUCAAAUUGCGGGAAAGGGGUCAACAGCCGUUCAGUACCAAGUCUCAGGGGAAACUUUGAGAUGGCCUUGCAAAGGGUAUGGUAAUAAGCUGACGGACAUGGUCCUAACCACGCAGCCAAGUCCUAAGUCAACAGAUCUUCUGUUGAUAUGGAUGCAGUUCACAGACUAAAUGUCGGUCGGGGAAGAUGUAUUCUUCUCAUAAGAUAUAGUCGGACCUCUCCUUAAUGGGAGCUAGCGGAUGAAGUGAUGCAACACUGGAGCCGCUGGGAACUAAUUUGUAUGCGAAAGUAUAUUGAUUAGUUUUGGAGUACUCGUGGUCG
# Method in brief: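 Library with all eight P1ex-region intron nucleotides randomised, intron inside the knt kanamycin-resistance gene on pET-22b(+), in E. coli BL21(DE3). Cells grew overnight at 37°C or 30°C on LB agar with or without 25 μg/mL kanamycin (plus 100 μg/mL carbenicillin, 50 μM IPTG, 0.2% rhamnose), in six replicate transformations. Pooled colonies were amplicon-sequenced on Illumina HiSeq 2500. DiMSum fitness is the error-weighted combination of wild-type-normalised replicate fold changes, kanamycin versus none.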
sequence,measurement,setting,value
CGUGAGCAAUAUUACGCCCU,self-splicing fitness (ln),30 °C,-3.26 ± 0.23
same,self-splicing fitness (ln),37 °C,-1.98 ± 0.24
AGAAAGCAAUAUUACGGCAG,self-splicing fitness (ln),30 °C,-0.958 ± 0.095
same,self-splicing fitness (ln),37 °C,-1.28 ± 0.12
AACUAGCAAUAUUACGCCCA,self-splicing fitness (ln),30 °C,-0.951 ± 0.14
same,self-splicing fitness (ln),37 °C,0.0227 ± 0.17
AGAUAGCAAUAUUACGUCAU,self-splicing fitness (ln),30 °C,-1.89 ± 0.097
same,self-splicing fitness (ln),37 °C,-0.716 ± 0.096
GUAUAGCAAUAUUACGGUAU,self-splicing fitness (ln),30 °C,-2.73 ± 0.18
same,self-splicing fitness (ln),37 °C,-2.26 ± 0.19
GUGAAGCAAUAUUACGCCGA,self-splicing fitness (ln),30 °C,-0.95 ± 0.15
same,self-splicing fitness (ln),37 °C,-0.474 ± 0.16
CUUAAGCAAUAUUACGCGAU,self-splicing fitness (ln),30 °C,-1.91 ± 0.19
same,self-splicing fitness (ln),37 °C,-0.837 ± 0.18
UACUAGCAAUAUUACGUGAG,self-splicing fitness (ln),30 °C,-3.38 ± 0.13
same,self-splicing fitness (ln),37 °C,-2.56 ± 0.23
GAGGAGCAAUAUUACGGAUG,self-splicing fitness (ln),30 °C,-3.77 ± 0.27
same,self-splicing fitness (ln),37 °C,-2.48 ± 0.24
GGUCAGCAAUAUUACGCUCG,self-splicing fitness (ln),30 °C,-0.0238 ± 0.095
same,self-splicing fitness (ln),37 °C,0.341 ± 0.12
GGUGAGCAAUAUUACGGCGC,self-splicing fitness (ln),30 °C,-0.434 ± 0.13
same,self-splicing fitness (ln),37 °C,-0.198 ± 0.19
UCGUAGCAAUAUUACGAGAG,self-splicing fitness (ln),30 °C,-4.38 ± 0.46
same,self-splicing fitness (ln),37 °C,-1.89 ± 0.25
CAGUAGCAAUAUUACGCGUG,self-splicing fitness (ln),30 °C,-2.65 ± 0.18
same,self-splicing fitness (ln),37 °C,-1.86 ± 0.14
AUAUAGCAAUAUUACGAAUU,self-splicing fitness (ln),30 °C,-2.52 ± 0.16
same,self-splicing fitness (ln),37 °C,-0.909 ± 0.14
GUCGAGCAAUAUUACGAAAC,self-splicing fitness (ln),30 °C,-2.72 ± 0.41
same,self-splicing fitness (ln),37 °C,-0.657 ± 0.37
CGUCAGCAAUAUUACGACCC,self-splicing fitness (ln),30 °C,-0.525 ± 0.18
same,self-splicing fitness (ln),37 °C,0.0394 ± 0.17
CUCUAGCAAUAUUACGUAGU,self-splicing fitness (ln),30 °C,-4.1 ± 0.26
same,self-splicing fitness (ln),37 °C,-4.45 ± 0.36
CGAAAGCAAUAUUACGCCAA,self-splicing fitness (ln),30 °C,-2.65 ± 0.2
same,self-splicing fitness (ln),37 °C,-2.41 ± 0.22
CUAUAGCAAUAUUACGUCUU,self-splicing fitness (ln),30 °C,-4.3 ± 0.32
same,self-splicing fitness (ln),37 °C,-2.76 ± 0.23
UGUAAGCAAUAUUACGUUAU,self-splicing fitness (ln),30 °C,-3.54 ± 0.22
same,self-splicing fitness (ln),37 °C,-2.73 ± 0.26
UCUUAGCAAUAUUACGUGCU,self-splicing fitness (ln),30 °C,-3.12 ± 0.38
same,self-splicing fitness (ln),37 °C,-2.37 ± 0.48
ACUGAGCAAUAUUACGGGAA,self-splicing fitness (ln),30 °C,-2.94 ± 0.17
same,self-splicing fitness (ln),37 °C,-2.48 ± 0.24
UGUGAGCAAUAUUACGCAUA,self-splicing fitness (ln),30 °C,-1.6 ± 0.23
same,self-splicing fitness (ln),37 °C,-2.46 ± 0.33
ACAAAGCAAUAUUACGGUAU,self-splicing fitness (ln),30 °C,-3.56 ± 0.13
same,self-splicing fitness (ln),37 °C,-1.35 ± 0.099
CGAAAGCAAUAUUACGGUCA,self-splicing fitness (ln),30 °C,-0.303 ± 0.12
same,self-splicing fitness (ln),37 °C,-0.586 ± 0.14
GAAUAGCAAUAUUACGUACU,self-splicing fitness (ln),30 °C,-0.732 ± 0.11
same,self-splicing fitness (ln),37 °C,-0.151 ± 0.12
CGCUAGCAAUAUUACGCGCA,self-splicing fitness (ln),30 °C,-1.81 ± 0.17
same,self-splicing fitness (ln),37 °C,-1.52 ± 0.17
AUAUAGCAAUAUUACGUCGU,self-splicing fitness (ln),30 °C,-1.12 ± 0.12
same,self-splicing fitness (ln),37 °C,-0.541 ± 0.18
GUUCAGCAAUAUUACGAGUU,self-splicing fitness (ln),30 °C,-1.43 ± 0.088
same,self-splicing fitness (ln),37 °C,-0.77 ± 0.086
CUUUAGCAAUAUUACGGGCU,self-splicing fitness (ln),37 °C,-1.66 ± 0.41
ACGAAGCAAUAUUACGCGGA,self-splicing fitness (ln),30 °C,-1.96 ± 0.17
same,self-splicing fitness (ln),37 °C,-1.33 ± 0.13
UACGAGCAAUAUUACGUGAA,self-splicing fitness (ln),30 °C,-3.05 ± 0.2
CGGCAGCAAUAUUACGGUUG,self-splicing fitness (ln),30 °C,-2.93 ± 0.14
same,self-splicing fitness (ln),37 °C,-1.11 ± 0.12
UACAAGCAAUAUUACGUGCC,self-splicing fitness (ln),30 °C,-2.49 ± 0.15
same,self-splicing fitness (ln),37 °C,-1.53 ± 0.14
ACUAAGCAAUAUUACGUUCG,self-splicing fitness (ln),30 °C,-1.06 ± 0.074
same,self-splicing fitness (ln),37 °C,-0.408 ± 0.092
GGCUAGCAAUAUUACGUAUG,self-splicing fitness (ln),30 °C,-2.06 ± 0.13
same,self-splicing fitness (ln),37 °C,-0.678 ± 0.13
CACCAGCAAUAUUACGCCGG,self-splicing fitness (ln),30 °C,-2.23 ± 0.15
same,self-splicing fitness (ln),37 °C,-0.937 ± 0.14
GUGAAGCAAUAUUACGCCAG,self-splicing fitness (ln),30 °C,-1.09 ± 0.2
same,self-splicing fitness (ln),37 °C,-1.1 ± 0.22
UCACAGCAAUAUUACGAAGA,self-splicing fitness (ln),30 °C,-1.18 ± 0.085
same,self-splicing fitness (ln),37 °C,-1.09 ± 0.093
UAACAGCAAUAUUACGUGAC,self-splicing fitness (ln),30 °C,-3.68 ± 0.2
same,self-splicing fitness (ln),37 °C,-2.46 ± 0.17
CUUUAGCAAUAUUACGUCCA,self-splicing fitness (ln),30 °C,-3.2 ± 0.41
same,self-splicing fitness (ln),37 °C,-0.864 ± 0.24
UGAUAGCAAUAUUACGCCAU,self-splicing fitness (ln),30 °C,-2.82 ± 0.26
same,self-splicing fitness (ln),37 °C,-3.2 ± 0.3
GACAAGCAAUAUUACGUACA,self-splicing fitness (ln),30 °C,-0.573 ± 0.055
same,self-splicing fitness (ln),37 °C,-0.314 ± 0.079
UAGGAGCAAUAUUACGUGUG,self-splicing fitness (ln),30 °C,-2.86 ± 0.15
same,self-splicing fitness (ln),37 °C,-1.72 ± 0.15
GAUCAGCAAUAUUACGCUGA,self-splicing fitness (ln),30 °C,-3.83 ± 0.37
same,self-splicing fitness (ln),37 °C,-1.33 ± 0.21
GCACAGCAAUAUUACGGGAU,self-splicing fitness (ln),30 °C,-1.01 ± 0.073
same,self-splicing fitness (ln),37 °C,-1.02 ± 0.087
GGCUAGCAAUAUUACGAAUA,self-splicing fitness (ln),30 °C,-0.326 ± 0.37
same,self-splicing fitness (ln),37 °C,-1.7 ± 0.28
GUGCAGCAAUAUUACGGACC,self-splicing fitness (ln),30 °C,-0.711 ± 0.31
GUACAGCAAUAUUACGUCCG,self-splicing fitness (ln),30 °C,-3.2 ± 0.23
same,self-splicing fitness (ln),37 °C,-1.74 ± 0.17
AACUAGCAAUAUUACGGCAU,self-splicing fitness (ln),30 °C,-0.42 ± 0.062
same,self-splicing fitness (ln),37 °C,-0.127 ± 0.075
CCGAAGCAAUAUUACGAAAA,self-splicing fitness (ln),30 °C,-1.87 ± 0.26
same,self-splicing fitness (ln),37 °C,-1.09 ± 0.27
UGAAAGCAAUAUUACGAUUG,self-splicing fitness (ln),30 °C,-0.872 ± 0.11
same,self-splicing fitness (ln),37 °C,-0.573 ± 0.14
GAUGAGCAAUAUUACGGAAU,self-splicing fitness (ln),30 °C,-3.1 ± 0.23
same,self-splicing fitness (ln),37 °C,-2.66 ± 0.41
ACAGAGCAAUAUUACGACAG,self-splicing fitness (ln),30 °C,-3.72 ± 0.31
same,self-splicing fitness (ln),37 °C,-1.95 ± 0.2
UAGUAGCAAUAUUACGAGAC,self-splicing fitness (ln),37 °C,-1.37 ± 0.39
CAUAAGCAAUAUUACGCGUG,self-splicing fitness (ln),30 °C,-3.79 ± 0.26
same,self-splicing fitness (ln),37 °C,-2.88 ± 0.2
UAGUAGCAAUAUUACGUUUU,self-splicing fitness (ln),30 °C,-3.14 ± 0.14
same,self-splicing fitness (ln),37 °C,-2.27 ± 0.16
CCCAAGCAAUAUUACGGCAA,self-splicing fitness (ln),30 °C,-2.32 ± 0.14
same,self-splicing fitness (ln),37 °C,-2.69 ± 0.16
UGGAAGCAAUAUUACGCAAC,self-splicing fitness (ln),30 °C,-3.31 ± 0.32
same,self-splicing fitness (ln),37 °C,-2.05 ± 0.27
GUUGAGCAAUAUUACGUUUU,self-splicing fitness (ln),30 °C,-2.91 ± 0.22
same,self-splicing fitness (ln),37 °C,-2.88 ± 0.3
UUGAAGCAAUAUUACGAUCG,self-splicing fitness (ln),30 °C,-0.0761 ± 0.14
same,self-splicing fitness (ln),37 °C,0.264 ± 0.19
GGAAAGCAAUAUUACGAAAC,self-splicing fitness (ln),30 °C,-1.37 ± 0.13
same,self-splicing fitness (ln),37 °C,-0.659 ± 0.17
UGCAAGCAAUAUUACGCUGG,self-splicing fitness (ln),30 °C,-4 ± 0.35
same,self-splicing fitness (ln),37 °C,-3.17 ± 0.24
ACGAAGCAAUAUUACGAUAU,self-splicing fitness (ln),30 °C,-3.39 ± 0.14
same,self-splicing fitness (ln),37 °C,-2.03 ± 0.14
CGCGAGCAAUAUUACGCGAG,self-splicing fitness (ln),30 °C,-3.97 ± 0.37
same,self-splicing fitness (ln),37 °C,-2.01 ± 0.41
GCCGAGCAAUAUUACGCUAU,self-splicing fitness (ln),30 °C,-2.6 ± 0.29
same,self-splicing fitness (ln),37 °C,-1.75 ± 0.15
GCGCAGCAAUAUUACGUGUA,self-splicing fitness (ln),30 °C,-0.699 ± 0.071
same,self-splicing fitness (ln),37 °C,-0.0774 ± 0.077
CACUAGCAAUAUUACGCAAU,self-splicing fitness (ln),30 °C,-1.48 ± 0.15
same,self-splicing fitness (ln),37 °C,-3.09 ± 0.35
AUGCAGCAAUAUUACGUGUA,self-splicing fitness (ln),30 °C,-2.34 ± 0.11
same,self-splicing fitness (ln),37 °C,-0.835 ± 0.091
UACCAGCAAUAUUACGCAAC,self-splicing fitness (ln),30 °C,-2.85 ± 0.3
same,self-splicing fitness (ln),37 °C,-2.19 ± 0.27
UCGCAGCAAUAUUACGGCCA,self-splicing fitness (ln),30 °C,-0.107 ± 0.091
same,self-splicing fitness (ln),37 °C,0.246 ± 0.11
UAAUAGCAAUAUUACGUAGU,self-splicing fitness (ln),30 °C,-3.82 ± 0.19
same,self-splicing fitness (ln),37 °C,-2.44 ± 0.23
CGGGAGCAAUAUUACGUCGA,self-splicing fitness (ln),37 °C,-1.71 ± 0.48
UCGGAGCAAUAUUACGGAAA,self-splicing fitness (ln),37 °C,-2.64 ± 0.36
CUAAAGCAAUAUUACGGCCA,self-splicing fitness (ln),30 °C,-3.21 ± 0.31
same,self-splicing fitness (ln),37 °C,-2.08 ± 0.4
AGUCAGCAAUAUUACGGAUG,self-splicing fitness (ln),30 °C,-1.36 ± 0.054
same,self-splicing fitness (ln),37 °C,0.106 ± 0.069
GAACAGCAAUAUUACGUUUA,self-splicing fitness (ln),30 °C,-0.588 ± 0.07
same,self-splicing fitness (ln),37 °C,-0.031 ± 0.078
